Values of other authors as cited in publication PMC11544004.

Columns and labels:
CD86 (Homo sapiens) = CD86 (Homo sapiens) (UniProt P42081)
CD80 (Homo sapiens) = CD80 (Homo sapiens) (UniProt P33681)
[1] = biological target: PVR (CD155) (Homo sapiens) (UniProt P15151)

UniProt P33681, sequence (P33681 35-242): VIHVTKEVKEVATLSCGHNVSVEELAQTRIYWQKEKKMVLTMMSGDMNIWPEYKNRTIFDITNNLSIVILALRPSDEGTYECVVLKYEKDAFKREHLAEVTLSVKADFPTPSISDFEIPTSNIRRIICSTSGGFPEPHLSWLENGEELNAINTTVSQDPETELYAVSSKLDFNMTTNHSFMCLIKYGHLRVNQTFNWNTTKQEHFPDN
UniProt P42081, sequence (P42081 24-247): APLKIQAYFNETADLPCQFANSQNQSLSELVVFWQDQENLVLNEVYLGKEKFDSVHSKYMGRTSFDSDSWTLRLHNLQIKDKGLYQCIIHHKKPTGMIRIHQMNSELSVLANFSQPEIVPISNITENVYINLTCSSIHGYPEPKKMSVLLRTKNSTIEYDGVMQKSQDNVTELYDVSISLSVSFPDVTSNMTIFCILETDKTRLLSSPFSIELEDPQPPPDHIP

Kd (CD86 (Homo sapiens)) [µM] | Kd (CD80 (Homo sapiens)) [µM] | Kd [1] [µM] | Substance
20 | 4 | – | CD28 (from UniProt P10747)
– | – | 0.002 | TIGIT (from UniProt Q495A1)
